In the DeepSol protein solubility set:

Experiment: soluble on expression in E. coli; label from the status in PepcDB or PDB records

Row | Sequence | soluble on expression in E. coli
1 | MAEKTYSGFVAIVGKPNVGKSTLLNNLLGVKVAPISPRPQTTRKRLRGILTEGRRQIVFVDTPGLHKPMDALGEFMDQEVYEALADVNAVVWVVDLRHPPTPEDELVARALKPLVGKVPILLVGNKLDAAKYPEEAMKAYHELLPEAEPRMLSALDERQVAELKADLLALMPEGPFFYPEDYAKSDQTFGEWVAEILREEAMKRLWHEVPYAVATKVEEVAERENGVLYIKAILYVERPSQKAIVIGEGGRKIKEIGQATRKQLEALLGKKVYLDLEVKVYPDWRKDPEALRELGYRSSVG | soluble
2 | MGSDKIHHHHHHMTITAMLNPVWIQTFATVAAARSFTEAGRQLGLSQSSVSDHIRRLEQSVGRRLFVRDTHSLSMTPDGEALLVHARLILEALARAESQFTAPRLRGRVRLGTSEDLAQGPLSGVLSAFRNTHPDVEMEITIAMTSKLYELMDAGSLDLMLGKRRQGDRRGVPLFRGSLEWLARPGTVVDLSQPLPLILVHEPSVTRSVVLDTLAKAGCQWQVVCSSSSHSGCLAAARGGLGLTVRSRYLYGEGVAPPLNWEKLPALPEVEFISLSARRLSQPAETLLRLLQKSDLRAASSWTSA | not soluble
3 | MSTAPLENAPTPGGARFTKIYDEDGEHIITRDEHKGLEWTAHALDSRHAAGFGNLLRRSGAKKVCRELTLGGHTDWRVPEIEEAMSIGLVDTCWPANETWFWTCTPCEQEPENKAWAFEFGTGNKRIEDRRIWLHVRAVRGQMRTDATATPKAGESLEHHHHHH | soluble
4 | MRRQAEAYKAQLAAMVESSDDAIIVKDLNAIITSWNAGAERIFGYQASEITGSSILALIPPERHEEEKGIMSLVKSGNRVDHFETMWWGKGKKPIDVSVTTSAVKDSDGNIVGISQIARDLEHHHHHH | not soluble
5 | MQTELTGKLQKLGFTENEAKIYIGLLRQGEVTAREIHEFTHVPRTKIYSTLNRMSKKKYIEVIEGTPAYFRSIDPEQLLERLRDEFLFSLNETLEELNSAGYGMKNKCC | not soluble
6 | MRKLNNHDVHKRYQDRLEEDVEFTINYELPLSCLWSTIKDFSSDFEEKTEAFFILFKELLRRGHLKLQRDGQIIGHTPEEWEQIFREVWPEYEIEPNPLPGYAPFDIGMWLTVEAPAYAVWIDPEDGSEYWAG | soluble
7 | DGQLTNLPGGIDEYLKRREALAAQNQSGVVNLGGNNEAASAPVPEKKLSSQEQREITKQMNALERKMGKLDPKIAKINEEMAAAAQRVDTAELTRLDAELNELTAQREGLEMEWMDLGERLES | soluble
8 | AHHHHHHGSGRFVVWPSELDSRLSRKYGRIVPRSIAVESPRVEEIVRAAEELKFKVIRVEEDKLNPRLSGIDEELRTFGMIVLESPYGKSKSLKLIAQKIREFRRRSA | not soluble
9 | MAHHHHHHMMRRVYAPVFCSVAAARFAATSAAKKYDLFGYEVDTNTAPWIEKIKKCKYYDEAGEVLVNMNVSNCPPDIATYNATLQCIYQSPSKQSTPVDNESKFCAMMDLLEEMQHRNRLKPNEESWTWVMKECVKSGQFRLGYCIQQVMETECKGCPADLVKANEANAQKAKTEGKEHPGHLSQQAGLFDVKVE | not soluble
10 | MTPTIELICGHRSIRHFTDEPISEAQREAIINSARATSSSSFLQCSSIIRITDKALREELVTLTGGQKHVAQAAEFWVFCADFNRHLQICPDAQLGLAEQLLLGVVDTAMMAQNALIAAESLGLGGVYIGGLRNNIEAVTKLLKLPQHVLPLFGLCLGWPADNPDLKPRLPASILVHENSYQPLDKGALAQYDEQLAEYYLTRGSNNRRDTWSDHIRRTIIKESRPFILDYLHKQGWATR | soluble
11 | MRGSHHHHHHTDPALRAIKVYGVPGWGSTISELMLTLADIPYQFVDVSGFDHEGASRELLKTLNPLCQVPTLALENDEIMTETAAIALMVLDRRPDLAPPVGRAERQLFQRLLVWLVANVYPTFTFADYPERWAPDAPEQLKKNVIEYRKSLYIWLNSQLTAEPYAFGEQLTLVDCYLCTMRTWGPGHEWFQDNATNISAIADAVCQLPKLQEVLKRNEIIGLCGR | soluble
12 | MSLTPATQPLINAEPAVAAQTEQNPQVGQVMPGVQGADAPVVAQNGPSRDVKLTFAQIAPPPGSMVLRGINPNGSIEFGMRSDEVVTKAMLNLEYTPSPSLLPVQSQLKVYLNDELMGVLPVTKEQLGKKTLAQMPINPLFITDFNRVRLEFVGHYQDVCENPASTTLWLDVGRSSGLDLTYQTLNVKNDLSHFPVPFFDPRDNRTNTLPMVFAGAPDVGLQQASAIVASWFGSRSGWRGQNFPVLYNQLPDRNAIVFATNDKRPDFLRDHPAVKAPVIEMINHPQNPYVKLLVVFGRDDKDLLQAAKGIAQGNILFRGESVVVNEVKPLLPRKPYDAPNWVRTDRPVTFGELKTYEEQLQSSGLEPAAINVSLNLPPDLYLMRSTGIDMDINYRYTMPPVKDSSRMDISLNNQFLQSFNLSSKQEANRLLLRIPVLQGLLDGKTDVSIPALKLGATNQLRFDFEYMNPMPGGSVDNCITFQPVQNHVVIGDDSTIDFSKYYHFIPMPDLRAFANAGFPFSRMADLSQTITVMPKTPNEAQMETLLNTVGFIGAQTGFPAINLTVTDDGSTIQGKDADIMIIGGIPDKLKDDKQIDLLVQATESWVKTPMRQTPFPGIVPDESDRAAETQSTLTSSGAMAAVIGFQSPYNDQRSVIALLADSPRGYEMLNDAVNDSGKRATMFGSVAVIRESGINSLRVGDVYYVGHLPWFERLWYALANHPILEGHHHHHH | soluble
13 | MASSKIVPLYQSMLNDLIRQIESGELVENAKLPSEQKLGEKYDVSRITVRRALAELENKDYIYKKQGQGSFVKNKEDIDLGIHYLDVRKAIENMNAVPEIRLEAFKLIVDGSESDVRKVMEINSDVYLYYLRYMVYADHRPVFHEQVYLPFERFPRIFNSEIVNNDLMPFLVKKYGLKASFFSHTQPALITKSNRKEFDLNVGDPMIYMQTRGIEEKEIIYYRKAAVVGNLIMYIVG | not soluble
14 | TEDSLMPEEEFLRRNKGPVSIKVQVPNMQDKTEWKLNGQGLVFTLPLTDQVSVIKVKIHEATGMPAGKQKLQYEGIFIKDSNSLAYYNMASGAVIHLALKER | soluble
15 | MENQEVVLSIDAIQEPEQIKFNMSLKNQSERAIEFQFSTGQKFELVVYDSEHKERYRYSKEKMFTQAFQNLTLESGETYDFSDVWKEVPEPGTYEVKVTFKGRAENLKQVQAVQQFEVKMAGDPLEHHHHHH | soluble
16 | MGSDKIHHHHHHMANNNGKDKSLESWIWDAACSIRGAKDAPKYKDYILPLIFTKRLCDVFDDELNRIAAEVGSRKKAFQLAKADHKLVRFYLPLVPDDPEQPVWSVIRKLSDWIGEGVTSHMRAIARENPLLQGIIDRVDFNATTHGQRDLDDDRLSNLIEAISTKRLGLEDVEADIIGKSYEYLIRKFAEGGGQSAGEFYTPPEVGTIMSRVLQPEPGMEIYDPTCGSGGLLVKCEIAMEETAKGKKRTVAPLKLFGQEFTPETWAMANMNMIIHDMEGQIEIGDTFKNPKFRSKGKLRTFDRVVANPMWNQDWFTEADYDNDELDRFPAGAGFPGKSSADWGWVQHIHASMNATGRAAVVLDTGAASRGSGNAGTNKEKTVRQWFVDHDLIESVLYLPENLFYNTTAPGIVLFLNKAKAHERKGKVFLVNASQVFEKGDPKNFIPEAGIQRIADTLIGWVEAEKLSRIVDHAELKKNDYNISPSRYIHTSDAETYRPIAEIVEELEAIEAEAKETDQALDRILKQLGIGA | not soluble
17 | MGSDKIHHHHHHMSDPGQPTLDQLRVFIAVVETGSFAAAARKLNRATSVISYTIANLEAQLGVTLFDRLSTKKPQLTLEGRTVLAEARSVSNGIDNLRAKVKSMLRGIEPEVHLALDVMLPASRVMDALKAFRKEFPSVSLRLYVEALGAVTQIVLNRTATVGISGPLDVDVLGLERIGVGFVQLVPVAAPDHPLAGGSHAPGAARSHIQLVLTDRSPLTQGHEFAVVGTHTWRLADLGAKHMLLKEGIGWGNMPEPMVRDDLADGRLVQLDLPDCKGGPYRLQAIYRTDTPPGPAGRFLIEHFQAQDAKTPTTAW | not soluble
18 | GTVQEIMIPAGKAGLVIGKGGETIKQLQERAGVKMILIQDGSQNTNVDKPLRIIGDPYKVQQACEMVMDILRERDQGGFGDRNEYGSRIGGGIDVPVPRHSVGVVIGRSGEMIKKIQNDAGVRIQFKQDDGTGPEKIAHIMGPPDRCEHAARIINDLLQSLRSG | soluble
19 | GMFNESDAPQPPKVLSTPLEIAANLRQLQESHDPLIITFHDRSHRFQSYVVHVDRESNTLALDEMIPRDGEKFIENGEHFRVEGFHDGVRIAWECDHALKISEVDGHRCYSGPLPQEVTYHQRRNAFRAALKLSQLVDIILDGAHLKGNGAMRGKLLDISATGCKLRFEGNVEDRLQLGQVYERFKAGNPLGLVDTMVELRHLHYEERINTTFAGVRFHNLSGQAQRKIESFVYQLQREARRFDKDDY | soluble
20 | MSSVYDFNVKNANGDDVSLSDYKGKVLIIVNVASQCGLTNKNYTQLKELLDVYKKDGLEVLAFPCNQFAGQEPSCEIDIQAFVADKFKFEPTLFQKIDVNGDKQSPLFKFLKNEKGGFMFDAIKWNFTKFLVGRDGKIIKRFGPTTDPKDMEKDIKEALGEKL | not soluble
21 | RSSLDLQLKNARNLAGLIIHDIDGYMMKGDSSEVDRFISAVKSKNFIMDLRVFDEQAKEVSPTPSQTPNAKIQQAIAAGRTLEFKETLDGKRTLSLVLPFPNEQRCQSCHDAGAAYLGGLLVTTSIEEGYEGARH | soluble
22 | MGSDKIHHHHHHMTTRLQDIIQPEIFTEYVVQRTTEKSALVQSGIIERNAEFDALASGPNTLVNMPFWNDLTGDSEVIRDEGNLTAGKITSGKDVARKQGRARMWGASGLSALLSGDDPMRAIADLVADYWIRQDQKMLLATLEGIFNSESMADKVLDITGEPGSDALLDGDSFIDAGQLMGDAKDLLTGVMMHSAVEAYLAKRQLIEYVQEADQTDRIPYFMNKRVIVDDAMPYDTQTKEGVIYLFGTGAIASGVGSHPNILPTEVDRNSQSSSGEDFLINRRIQILHPRGVKWTENNVSDVFPTNEELADGSNWERVYEPKAIRIVKFKFKTELDVDGA | not soluble
23 | MDRDWGGKTGGGGVASSEQTEVSRRERLRQLALETIDLKKDPYFMRNHLGGYECKLCLTLHTNEGNYLAHTQGRRHQMNLARRAAREAKEKPQTVAPPPKIVPKKTIKIGRPGYRIIKQRDPETDQLSLLFQIQYPEIAEDVQPRHRFMSSFEQKVERPDPKYQFLLFAAEPYETIAFKIPNWEIEKSEGNYYLHWDKDNKTFTLQIYFKPRSQPPVKNQQEIPSQQASVGNLMKQQRDPFAPIAFGT | soluble
24 | MGSDKIHHHHHHEEAEAHQKPVEIQPETVKIARNSELTIVPLYTPYQKYLKASLKTDDPEMDKKYYAKYVLSYIDEIGEQEKFSTADLKGNFMLQSTSYEQELLNRIDTLMKQHDKIKEVITENYIAAHKILPKKKSTIFIVPSNSDFPTMSESLAGVTGAAYKDAFVLYLDQTFDKNVLAYTIAHEYHHLILHDTPDFKISSVLKSVIVEGKADAFADRIVKGVSPPWDVPMDNTTKKHVAGLVNNYETTFNDVTFGNEQKDIPRWSNYILGRDILNHYLKSNPNLSIKEWTYKDEHEILKDYKYQNILE | not soluble
25 | GAVFEFDNLAPMLATHGTVAGLKASQWAFEGKWDGYRLLVEADHGAVRLRSRSGRDVTAEYPQLRALAEDLADHHVVLDGEAVVLDSSGVPSFSQMQNRGRDTRVEFWAFDLLYLDGRALLGTRYQDRRKLLETLANATSLTVPELLPGDGAQAFACSRKHGWEGVIAKRRDSRYQPGRRCASWVKDKHWNTQEVVIGGWRAGEGGRSSGVGSLLMGIPGPGGLQFAGRVGTGLSERELANLKEMLAPLHTDESPFDVPLPARDAKGITYVKPALVAEVRYSEWTPEGRLRQSSWRGLRPDKKPSEVVRE | soluble
